According to patent EP0866075B1, “Method to treat microbial infections by uncoupling of phosphotransferase system and appropriate agents therefor” (Arpida AG,, priority 1997, dated 1998):

Target: enzyme I (phosphoenolpyruvate-protein phosphotransferase, EC 2.7.3.9) of the E. coli phosphotransferase system (E. coli) (UniProt P08839)
Test: cell-based or functional assay

Question: Which uncoupling P;Ipeptide/h does the source give for “HPr protein (phosphorylcarrier protein HPr) (from UniProt P0AA04 1-85)” here?
Answer: 2.7 Pi/peptide/h
